Experimental data reported in patent US20240269306A1, “B7H4-TARGETED ANTIBODY-DRUG CONJUGATES AND METHODS OF USE THEREOF” (Mersana Therapeutics, Inc., priority 2021, published 2024).
Like-named read-outs stand apart in the source and are kept apart here.

Legend:
[1] = biological target: T1, Recombinant human B7-H4 protein (R&D Systems #6576-B7-050) (human) (UniProt Q7Z7D3); experiment: BLI (Octet)
T1 sequence: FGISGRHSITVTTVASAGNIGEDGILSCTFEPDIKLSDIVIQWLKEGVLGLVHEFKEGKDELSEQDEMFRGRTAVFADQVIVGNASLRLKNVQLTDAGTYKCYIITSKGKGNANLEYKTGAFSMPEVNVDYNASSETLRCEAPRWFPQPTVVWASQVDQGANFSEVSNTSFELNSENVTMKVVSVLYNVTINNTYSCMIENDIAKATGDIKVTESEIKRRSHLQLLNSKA

[2] = biological target: T2, Human B7-H4 on the cell surface (MX-1, HCC1569, CAMA-1 cells; HEK-293 cells stably transfected with human B7-H4) (human) (UniProt Q7Z7D3); experiment: flow cytometry, MX-1 cells
T2 sequence: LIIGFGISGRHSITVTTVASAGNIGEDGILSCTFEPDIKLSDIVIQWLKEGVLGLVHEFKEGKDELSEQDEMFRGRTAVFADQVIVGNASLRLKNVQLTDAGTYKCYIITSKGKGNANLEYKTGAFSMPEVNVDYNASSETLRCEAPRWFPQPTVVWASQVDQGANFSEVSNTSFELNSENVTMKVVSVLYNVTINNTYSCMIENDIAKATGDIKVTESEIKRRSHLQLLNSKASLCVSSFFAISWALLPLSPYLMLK

[3] = biological target: T2, Human B7-H4 on the cell surface (MX-1, HCC1569, CAMA-1 cells; HEK-293 cells stably transfected with human B7-H4) (human); experiment: flow cytometry, MX-1 cells; remark: listed apart in the source
[4] = biological target: T2, Human B7-H4 on the cell surface (MX-1, HCC1569, CAMA-1 cells; HEK-293 cells stably transfected with human B7-H4) (human); experiment: flow cytometry, HCC1569 cells
[5] = biological target: T1, Recombinant human B7-H4 protein (R&D Systems #6576-B7-050) (human); experiment: ELISA, coated recombinant human B7-H4
[6] = biological target: T1, Recombinant human B7-H4 protein (R&D Systems #6576-B7-050) (human); experiment: ELISA, coated recombinant human B7-H4; remark: listed apart in the source
[7] = biological target: T1, Recombinant human B7-H4 protein (R&D Systems #6576-B7-050) (human); experiment: BLI (Octet), antibody on anti-human Fc sensor, human B7-H4 in solution, 25 C

B1: 1D11 antibody (antibody, from another filing, V domains shown)
VH: QVQLQQSGAELVRPGTSVKMSCKASGYTFTSYWIGWAKQRPGHGFEWIGDIYPGGGYTNYNEKFKGKATLTADKSSSTAYMQFSSLTSEDSAIYYCARLDGSSYRGAMDSWGQGTSITVSS
VL: DIQMTQSPSSLSASLGGKVTITCKASQGFNKYVAWYQHKPGQCPRLLIHYTSTLQPGIPARFSGSGSGRDYSFSISNLEPEDSATYFCLQYGNLLYAFGGGTKLEIKR
For B1, the fold difference of kon against B7-H4 2F9 and variant antibodies [1] was under 2 fold, the fold lower Kd than B7-H4 2F9 [1] was over 100 fold and the EC50 [2] was 4.9 nM. It also gave an EC50 [3] of 8.83 nM, an EC50 [4] of 3.44 nM and an EC50 [5] of 0.52 nM. The EC50 [6] was 0.86 nM, the Kd [7] was 0.117 nM and the koff [7] was 1.46e-05 s⁻¹. The kon [7] was 125000 M⁻¹ s⁻¹.
